Laboratory results reported in the RNAGym collection of RNA variant scans (doi:10.1073/pnas.2313332121).
Fewer inactive variants are shown than the library holds.

B1: TPR 5TU (parent)
chain: GGAUCUUCUCGAUCUAACAAAAAAGACAAAUCUGCCACAAAGCUUGAGAGCAUCUUCGGAUGCAGAGGCGGCAGCCUUCGGUGGCGCGAUAGCGCCAACGUUCUCAACUAUGACACGCAAAACGCGUGCUCCGUUGAAUGGAGUUUAUCAUG

Variants of: B1
Test: polymerase ribozyme fitness, log enrichment relative to wild type (log ratio); higher = more active; in vitro selection for triplet polymerase activity
Procedure, shortened: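 Mutant libraries of each subunit of a heterodimeric triplet polymerase ribozyme were built by PCR and transcribed. Each library went through one round of in vitro selection in triplicate: annealing with biotinylated primer, partner subunit and triplets, frozen incubation at −7 °C, gel excision of extended constructs, streptavidin-bead capture and RT-PCR. Input and output libraries were Illumina-sequenced; only genotypes with ≥10 input reads and ≥1 read per output were kept. Fitness is log2(genotype enrichment/wild-type enrichment), using inverse-variance-weighted replicate averages.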

Going from GGAUCUUCUCGAUCUAACAAAAAAGACAAAUCUGCCACAAAGCUUGAGAGCAUCUUCGGAUGCAGAGGCAGCAGCCUUCGGUGGCGCGAUAGCGCUAACGUUCUCAACUAUGACACGCAAAACGCGUGCUCCGUUGAAUGGAGUUUAUCAUG [G70A C96U] to GGAUCUUCUCGAUCUAACAAAAAAGACAAAUCUGCCACAAAGCUUGAGAGCAUCUUCGGAUGCAGAGGCAGCACCCUUCGGUGGCGCGAUAGCGCCAACGUUCUCAACUAUGACACGCAAAACGGGUGCUCCGUUGAAUGGAGGUUAUCAUG [G70A G74C C125G U144G], the “polymerase ribozyme fitness (log ratio)” value falls from -2.89 to at most -4.2.

GGAUCUUCUCGAUCUAACAAAAAAGACAAAUCUGCCACAAAGCUUGAGAGCAUCUUCGGAUGCAGAGGCAGCAGCCUUCGGUGGCACGGUAGCGCCAAAGUUCUCAACUAUGACACGCAAAACGCGUGCUCCGUUGAAUGGAGUUUAUCAUG [G70A G86A A89G C99A] and GGAUCUUCUCGAUCUAACAAAAAAGACAAAUCUGCCACAAAGCUUGAGAGCAUCUUCGGAUGCAGAGGCCGCAGCCUUCGGUGGCGCUAUGGCGACAACGUUCUCAACUAUGACACGCGAAACGCGUGCUCCGUUGAAUGGAGCUUACCAUG [G70C G88U A91G C95A A119G U144C U148C] cannot be ordered by “polymerase ribozyme fitness (log ratio)” value: at most -4.2 for the first, at most -4.2 for the second.

GGAUCUUCUCGAUCUAACAAAAAAGACAAAUCUGCCACAAAGCUUGAGAGCAUCUUCGGAUGCAGAGGCCGCAGCCUUCGGUGGCGCGAUAGCGCUAACAUUCUCAACUAUGACACGGACAACGCGUGCUCCGUUGAAUGGAGUUUAUCAUG [G70C C96U G100A C118G A120C] and GGAUCUUCUCGAUCUAACAAAAAAGACAAAUCUGCCACAAAGCUUGAGAGCAUCUUCGGAUGCAGAGGCCGCAGCCUUCGGUCGCGCGAUAGCGCCAACGUUCUUAACUAUGACACGCAAAACGUGUGCUCCGUUGAAUGGAGUUUAUCAUG [G70C G83C C105U C125U] cannot be ordered by “polymerase ribozyme fitness (log ratio)” value: at most -4.2 for the first, at most -4.2 for the second.

Compared with GGAUCUUCUCGAUCUAACAAAAAAGACAAAUCUGCCACAAAGCUUGAGAGCAUCUUCGGAUGCAGAGGCCGCAGCCUUCGGUGGCGCGAUAGCGCCAACGUUGUCAACUAUGACACGCAGAACGCGCGCUCCGCUGAAUGGAGUUUAUCAUG [G70C C103G A120G U127C U134C], GGAUCUUCUCGAUCUAACAAAAAAGACAAAUCUGCCACAAAGCUUGAGAGCAUCUUCGGAUGCAGAGGCAGCAGCCUUCGGUGGCGCGAUAGCGCCAACGUUCUCAACUAUGACACGCAAAUCGCGUGCUCCGUUGAAUGGAGUUUAUCAUG [G70A A122U] is higher in “polymerase ribozyme fitness (log ratio)” value: at most -4.2 for the first, -3.6 for the second.

GGAUCUUCUCGAUCUAACAAAAAAGACAAAUCUGCCACAAAGCUUGAGAGCAUCUUCGGAUGCAGAGGCCGCAGCCUUCGGUGGCGCUAUAGCGCCCACGUUCUCAACUAUGACACGCAAAACGCGUGCUCCGUUGAAUGGAGUUUAUCAUG [G70C G88U A97C] and GGAUCUUCUCGAUCUAACAAAAAAGACAAAUCUGCCACAAAGCUUGAGAGCAUCUUCGGAUGCAGAGGCAGCAGCCUUCGGUGGCGCGAUAGCGCCAACCUUCUCAACUAUGACACGCAAAACGCGUGCUCCGUUGAAUGGAGUUUAUCAUG [G70A G100C] cannot be ordered by “polymerase ribozyme fitness (log ratio)” value: at most -4.2 for the first, at most -4.2 for the second.

First: GGAUCUUCUCGAUCUAACAAAAAAGACAAAUCUGCCACAAAGCUUGAGAGCAUCUUCGGAUGCAGAGGCAGCAGCCUUCGGUGGCGCGAUAGUGCCAACGUUCUCAACUAUGACACGCAAAACGCGUGCUCCGUUGAAUGCAGUUUAUCAUG [G70A C93U G141C]
Second: GGAUCUUCUCGAUCUAACAAAAAAGACAAAUCUGCCACAAAGCUUGAGAGCAUCUUCGGAUGCAGAGGCAGCAGCCUUCGGUGGCGUGAUAGCGCCAACGUUCUCGACUAUGACACGCAAAACGCGUGCUCCGUUGAAUGGAGUUUAUCAUG [G70A C87U A106G]
The “polymerase ribozyme fitness (log ratio)” value of the first is lower: at most -4.2 for the first, -2.89 for the second.

GGAUCUUCUCGAUCUAACAAAAAAGACAAAUCUGCCACAAAGCUUGAGAGCAUCUUCGGAUGCAGAGGCAGCAGCCUUCGGUGGCGUGAUAGCGCAAACGUUCUCAACUAUGACACGGAAAACGCGUGCUCCGUUGAAUGGAGUUUCUCAUG [G70A C87U C96A C118G A147C] and GGAUCUUCUCGAUCUAACAAAAAAGACAAAUCUGCCACAAAGCUUGAGAGCAUCUUCGGAUGCAGAGGCAGCAGCCUUCGGUGGCGCCAUAGCGCCAACGUUCUCAACUAUGACACGCAAAACGCGUGCUCCGUUGAAUGGAGCUUAUCAUG [G70A G88C U144C] cannot be ordered by “polymerase ribozyme fitness (log ratio)” value: at most -4.2 for the first, at most -4.2 for the second.

GGAUCUUCUCGAUCUAACAAAAAAGACAAAUCUGCCACAAAGCUUGAGAGCAUCUUCGGAUGCAGAGGCAGCAGCCUUCGGUGACGGGAUAGCGCCAACGUUCUCAACUAUGCCACGCAGAACGCGUGCUCCGUUGAAUGGAGUUUAUCAUG [G70A G84A C87G A113C A120G] and GGAUCUUCUCGAUCUAACAAAAAAGACAAAUCUGCCACAAAGCUUGAGAGCAUCUUCGGAUGCAGAGGCCGCAGCCUUCGGUGGCGCGAUAGCGCCAACGUUCUCAACUAUGACACGCAAAACGCGUGCUCCGUUCAAUGGAGUUUAUCAUG [G70C G136C] cannot be ordered by “polymerase ribozyme fitness (log ratio)” value: at most -4.2 for the first, at most -4.2 for the second.

Going from GGAUCUUCUCGAUCUAACAAAAAAGACAAAUCUGCCACAAAGCUUGAGAGCAUCUUCGGAUGCAGAGGCCGCAGCCUUCGGUGGCGCGAUAUCGCCAACGUUCUCAACUAUGACACGCAAAACGCGUGCUCCGUUGAAUGGAGUUUAUCAUG [G70C G92U] to GGAUCUUCUCGAUCUAACAAAAAAGACAAAUCUGCCACAAAGCUUGAGAGCAUCUUCGGAUGCAGAGGCAGCAACCUUCGGUGGCGCGAUAGCGCCAACGGUCCCAACUAUGACACGCAAAACGCGUGCUCCGUUGAAUGGAGUUUUUCAUG [G70A G74A U101G U104C A147U], the “polymerase ribozyme fitness (log ratio)” value falls from -3.01 to at most -4.2.

With GGAUCUUCUCGAUCUAACAAAAAAGACAAAUCUGCCACAAAGCUUGAGAGCAUCUUCGGAUGCAGAGGCCGCAGCCUUCGGUGGCACGAUAGCGCCAACGUUCUCAACUAUGAUGCGCAAAACGCGUGCUCCGUUGAAUGGAUUUUAUCCUG [G70C G86A C114U A115G G143U A150C] the “polymerase ribozyme fitness (log ratio)” value was at most -4.2.
